20 molecules from patent US20220144940A1 (VIELA BIO, published 2022) can be followed below.

Numbering of substitutions follows the chain as printed. Where “and” joins values, the source holds several entries; their conditions need not be identical. Identical values can stand only once.

Sequences and labels used below:
B1: ILT70080.1 (antibody, V domains shown)
VH: QVQLVQSGAEVKKPGSSVKVSCKASGDSFRNYAVSWVRQAPGQGLEWMGAMMPSFGTREHSQQFQGRVTLTADESTSTAYMELSSLRSEDTAVYYCAGSRDYNAYHFWTGPPDFWGRGTLVTVSS
VL: SYVLTQPPSVSVAPGKTARITCGGDSVGSTSVHWYQQKPGQAPVMVMFYNSDRPSGIPERFSGSISGNTATLTISRVEAGDEADYYCQVWDTSSDHPEFGGGTKLTVL
notes: Engineered (germlined) variant of ILT70080, tested as IgG1
B2: ILT70080.6 (antibody, V domains shown)
VH: B1 VH
VL: B1 VL with M45L, M47I, F48Y, I65N
notes: as for B1
B3: ILT70080.5 (antibody, V domains shown)
VH: B1 VH
VL: B1 VL with I65N
notes: as for B1
B4: ILT70080.4 (antibody, V domains shown)
VH: B1 VH with K13A, S16T, T71S
VL: B1 VL with V3E, R19K, T21S
notes: as for B1
B5: ILT70080.7 (antibody, V domains shown)
VH: B1 VH
VL: B1 VL with M45L, I65N
notes: as for B1
B6: ILT70080.2 (antibody, V domains shown)
VH: B1 VH with T71S
VL: B1 VL
notes: as for B1
B7: ILT70080.3 (antibody, V domains shown)
VH: B1 VH with K13A, S16T, T71S
VL: B1 VL
notes: as for B1
B8: ILT70083.3 (antibody, V domains shown)
VH: EVQLLESGGGLVQPGGSLRLSCAASGFTFSSYAMSWVRQAPGKGLEWVSAISGSGGSTYYADSVKGWFTISRDNSKNTLYLQMNSLRAEDTAVYYCARRTYYYDSDGHSDVFDIWGRGTLVTVSS
VL: QSVVTQPPSVSAAPGQKVTISCSGSASNIGSNFVSWYQQLPGTAPKLLIYDNDKRDLGIPDRFSGSKSGTSATLGITGLQTGDEADYYCGTWDTSLTVGVFGGGTKLTVL
notes: Engineered (germlined) IgG1 variant of ILT70083
B9: ILT70083.1 (antibody, V domains shown)
VH: B8 VH
VL: B8 VL with G65A, K67I, G69S
B10: ILT70083.2 (antibody, V domains shown)
VH: B8 VH
VL: B8 VL with V4L, G65A, K67I, G69S
notes: as for B8
B11: ILT70083.4 (antibody, V domains shown)
VH: B8 VH
VL: B8 VL with V4L
notes: as for B8
B12: ILT70083.6 (antibody, V domains shown)
VH: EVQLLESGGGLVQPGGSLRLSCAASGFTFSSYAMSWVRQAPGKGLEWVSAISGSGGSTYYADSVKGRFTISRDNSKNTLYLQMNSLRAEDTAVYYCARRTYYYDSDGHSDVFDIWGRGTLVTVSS
VL: B8 VL with G65A, K67I, G69S
notes: as for B8
B13: ILT70083.8 (antibody, V domains shown)
VH: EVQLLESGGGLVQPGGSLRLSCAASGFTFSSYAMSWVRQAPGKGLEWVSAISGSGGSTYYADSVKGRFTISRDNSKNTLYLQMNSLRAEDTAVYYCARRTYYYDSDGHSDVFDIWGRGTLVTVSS
VL: B8 VL
notes: as for B8
B14: ILT70083.7 (antibody, V domains shown)
VH: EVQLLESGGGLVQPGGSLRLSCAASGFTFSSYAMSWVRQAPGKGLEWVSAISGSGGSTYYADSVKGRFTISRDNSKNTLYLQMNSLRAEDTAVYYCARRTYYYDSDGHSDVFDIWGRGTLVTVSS
VL: B8 VL with V4L, G65A, K67I, G69S
notes: as for B8
B15: ILT70083.5 (antibody, V domains shown)
VH: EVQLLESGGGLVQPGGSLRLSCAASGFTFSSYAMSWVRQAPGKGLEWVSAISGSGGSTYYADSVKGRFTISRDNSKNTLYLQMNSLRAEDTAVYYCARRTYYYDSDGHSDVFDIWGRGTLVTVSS
VL: B8 VL with T43R, G65A, K67I, G69S, T73A, G75A, G82E
notes: as for B8
B16: ILT70083.9 (antibody, V domains shown)
VH: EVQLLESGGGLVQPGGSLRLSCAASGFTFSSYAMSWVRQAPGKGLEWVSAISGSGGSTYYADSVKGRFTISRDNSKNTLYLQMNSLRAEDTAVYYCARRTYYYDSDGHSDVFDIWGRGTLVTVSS
VL: B8 VL with V4L
notes: as for B8
B17: ILT70100 (antibody, V domains shown)
VH: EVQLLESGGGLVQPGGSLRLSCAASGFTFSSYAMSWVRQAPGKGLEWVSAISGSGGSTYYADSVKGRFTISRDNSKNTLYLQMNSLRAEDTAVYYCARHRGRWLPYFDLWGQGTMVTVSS
VL: DIQLTQSPSSLSASVGERVTITCQASQDIRSYLNWYQQKPGKAPKLLIYDVSNLETGVPSRFSGSGSGTEYTFSISSLQPEDFATYYCQQYDKAPLTFGGGTKVEIK
B18: ILT70052 (antibody, V domains shown)
VH: EVQLVESGGGLVKPGGSLRLSCEASGFTFTDYYMNWIRQAPGKGLEWISYISPGGTTVYYADSVKGRFTISRDNAKNSLYLQMNSLRVEDTAVYYCARDISGYGDWFDPWGKGTLVTVSS
VL: QSVVTQPPSASGTPGQRVTISCSGSSSNIGSNTVNWYQLLPATAPRILIYNNNQRPSGVPDRFAGSKSGTSASLAISGLQSEDEADYYCGAWDDSLNSPVFGGGTKLTVL
B19: ILT70142 (antibody, V domains shown)
VH: QVQLVQSGAEVKKPGASVKVSCKASGYTFTSYGISWVRQAPGQGLEWMGWISAYNGNTNYAQKLQGRVTMTRDTSISTAYMELSRLRSDDTAVYYCARNGLWGWDSDAFDIWGQGTTVTVSS
VL: QSVLTQPPSVSAAPGQKVTISCSGSSSNIGNNYVSWYQQLPGTAPKLLIYDNNKRPSGIPDRFSGSKSGTSATLGITGLQTGDEADYYCGTWDSSLSAGVFGTGTQLTVL
B20: ILT70144 (antibody, V domains shown)
VH: B19 VH
VL: B19 VL

For one test, the target named is T1, HA-tagged human ILT7 on CT-550 cells (human, UniProt P59901 24-499). Description: cell-based or functional assay.
T1 sequence (P59901 24-499): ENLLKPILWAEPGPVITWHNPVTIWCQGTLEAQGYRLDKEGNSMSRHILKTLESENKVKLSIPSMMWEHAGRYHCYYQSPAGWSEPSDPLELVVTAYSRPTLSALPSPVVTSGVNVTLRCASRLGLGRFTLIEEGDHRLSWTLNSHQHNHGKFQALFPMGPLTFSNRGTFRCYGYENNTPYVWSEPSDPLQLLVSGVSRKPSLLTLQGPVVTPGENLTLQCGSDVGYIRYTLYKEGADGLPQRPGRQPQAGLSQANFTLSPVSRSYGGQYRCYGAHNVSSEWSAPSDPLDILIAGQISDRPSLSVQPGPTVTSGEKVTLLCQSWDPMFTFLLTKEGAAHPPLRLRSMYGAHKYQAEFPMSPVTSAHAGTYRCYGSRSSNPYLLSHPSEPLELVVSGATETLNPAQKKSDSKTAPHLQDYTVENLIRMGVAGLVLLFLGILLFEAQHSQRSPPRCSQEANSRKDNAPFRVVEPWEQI
As for B1, the “ADCC EC50” value was < 0.0141 nM and 0.008 nM and 0.01 nM.

For B2, the “ADCC EC50” value is < 0.0141 nM and 0.0069 nM.

For the molecule B3, the “ADCC EC50” value was < 0.0141 nM and 0.0086 nM.

B4: the “ADCC EC50” value is < 0.0141 nM and 0.0119 nM.

For the molecule B5, the “ADCC EC50” value was < 0.0141 nM and 0.0078 nM.

B6: the “ADCC EC50” value was less than 0.0141 nM.

With B7, the “ADCC EC50” value is < 0.0141 nM and 0.011 nM.

With B8, the “ADCC EC50” value is greater than 0.089 nM.

In the case of B9, the “ADCC EC50” value was greater than 0.089 nM.

For the molecule B10, the “ADCC EC50” value is greater than 0.089 nM.

On to B11, for which the “ADCC EC50” value was greater than 0.089 nM.

Turning to B12, the “ADCC EC50” value was greater than 0.089 nM.

On to B13, for which the “ADCC EC50” value was greater than 0.089 nM.

Turning to B14, the “ADCC EC50” value is greater than 0.089 nM.

For B15, the “ADCC EC50” value was greater than 0.089 nM.

Consider B16, for which the “ADCC EC50” value was greater than 0.089 nM.

For another test, the target named is T2, cynomolgus ILT7 (cynomolgus, UniProt P59901 24-499 (human entry)). Description: cell-based or functional assay.
T2 sequence (P59901 other isoform, or with tags, fused parts or gaps limits assumed): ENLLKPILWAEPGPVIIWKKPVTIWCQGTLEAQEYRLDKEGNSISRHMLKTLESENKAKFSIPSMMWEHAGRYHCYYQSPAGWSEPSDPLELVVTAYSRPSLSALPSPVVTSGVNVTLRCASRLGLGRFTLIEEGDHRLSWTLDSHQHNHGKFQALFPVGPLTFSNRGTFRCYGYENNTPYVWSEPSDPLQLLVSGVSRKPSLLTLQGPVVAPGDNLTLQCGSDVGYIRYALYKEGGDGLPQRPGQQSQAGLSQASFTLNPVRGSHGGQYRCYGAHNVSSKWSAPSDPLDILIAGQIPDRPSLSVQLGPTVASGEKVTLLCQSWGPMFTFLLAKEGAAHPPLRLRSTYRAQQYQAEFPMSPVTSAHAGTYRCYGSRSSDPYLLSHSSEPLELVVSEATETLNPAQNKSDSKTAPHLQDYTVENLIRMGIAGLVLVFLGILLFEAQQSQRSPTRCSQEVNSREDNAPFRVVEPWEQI
For the molecule B17, the “ADCC EC50” value worked out at 0.188 nM.

B18: the “ADCC EC50” value came to 0.073 nM.

B19: the “ADCC EC50” value is 0.058 nM.

Another test addresses T2, cynomolgus ILT7. Description: flow cytometry on CynoILT7 CT-125 cells. As for the experimental part:
(§1) Binding of anti-ILT7 variants and isotype controls on human and cynomolgus ILT7 was assessed by flow cytometry analysis using CT-550 and cynoILT7 CT-125 cells respectively. CT-125 cells were used as control. Cells were resuspended in Blocking Buffer (PBS supplemented with 10% FBS) at a concentration of 5 million cells per mL and transferred into a round-bottom 96-well plates (BD Falcon™ Clear Microtest Plate, BD Biosciences) at 100 μL per well. Anti-ILT7 variants and control antibodies were added onto the cells for 30 min at 4° C. on a plate shaker. Cells were washed three times with PBS and resuspended in Blocking Buffer (100 μL/well). Human IgG binding on cell surface was detected using a secondary anti-human IgG antibody conjugated to DyLight 649 (1 in 1000 dilution). Cells were incubated in the dark for 30 min at 4° C. on a plate shaker. Cells were washed three times with PBS and surface fluorescence was acquired using LSRII Flow Cytometry System and FACSDiva Software (both from BD Biosciences).
In order to determine the binding EC₅₀ of the variants on cells expressing cynomolgus ILT7, the antibodies were screened for binding on CynoILT7 CT-125 cells by flow cytometry. […] The graph in FIG. 3 represents the mean results from two independent experiments, and the table in FIG. 3 show the average EC₅₀.
In general terms: A flow cytometer gives signals particle by particle.
The term EC50 denotes the concentration at which the effect is half-maximal. A low value points to higher potency in that assay. B17: the EC50 turned out to be 1.63 nM.

Molecule B18 showed an EC50 of 0.35 nM.

B20 returned a concentration giving a half-maximal response (EC50) of 7.81 nM.

The target of another test is T1, HA-tagged human ILT7 on CT-550 cells. Briefly: flow cytometry on CT-550 cells (human ILT7), top panel, table 'Ec50 (pM)'. How it is done: as §1
In turn, B1 had an EC50 of 0.201 nM.

In the case of B2, the EC50 was determined as 0.287 nM.

B3 came in with an EC50 of 0.503 nM.

For B4, the response was half-maximal at 0.337 nM (EC50).

On to B5, for which the concentration giving a half-maximal response (EC50) is 0.229 nM.

The molecule B6 showed a 50% effective concentration (EC50) of 0.225 nM.

For B7, a half-maximal effect (EC50) was put at 0.198 nM.

A further test has the same target. Briefly: flow cytometry on human ILT7-expressing cells, top panel, table 'Ec50 (pM)'.
On to B8, for which the EC50 was 0.596 nM.

Turning to B10, the concentration giving a half-maximal response (EC50) came out at 0.863 nM.

The molecule B11 had an EC50 of 0.353 nM.

For the molecule B12, the EC50 was 0.516 nM.

Molecule B13 gave a 50% effective concentration (EC50) of 0.437 nM.

Turning to B14, the EC50 is 0.905 nM.

The molecule B15 had an EC50 of 0.5 nM.

In the case of B16, it took 0.54 nM to reach a half-maximal effect (EC50).

In a further test the target is T2, cynomolgus ILT7. Briefly: flow cytometry on cynomolgus ILT7-expressing cells, bottom panel, table 'Ec50 (pM)'. As for the experimental part: as §1
Turning to B8, the concentration giving a half-maximal response (EC50) came out at 0.777 nM.

B10 registered an EC50 of 15 nM.

Consider B11, for which a half-maximal effect (EC50) was put at 0.62 nM.

Molecule B12 gave an EC50 of 1.6 nM.

The molecule B13 showed an EC50 of 0.711 nM.

As to B14, the EC50 came out at 9.47 nM.

The molecule B15 yielded a 50% effective concentration (EC50) of 2.28 nM.

Molecule B16 had a half-maximal effective concentration (EC50) of 0.957 nM.

For another test, the target named is T2, cynomolgus ILT7. Briefly: flow cytometry on CynoILT7 CT-125 cells (cynomolgus ILT7), bottom panel, table 'Ec50 (pM)'. How it is done: as §1
As to B1, the half-maximal effective concentration (EC50) is 0.463 nM.

Turning to B2, a half-maximal effect (EC50) was put at 0.428 nM.

Turning to B3, a half-maximal response (EC50) required 0.612 nM.

B4 displayed a concentration giving a half-maximal response (EC50) of 0.597 nM.

B5 returned an EC50 of 0.405 nM.

Consider B6, for which it took 0.503 nM to reach a half-maximal effect (EC50).

For B7, the EC50 worked out at 0.467 nM.

The next test addresses T1, HA-tagged human ILT7 on CT-550 cells. Description: flow cytometry (MFI) on human ILT7-expressing cells, left panel 'Human ILT7', table 'Ec50 (pM) Mean ± SD n=3'.
The molecule B2 gave a concentration giving a half-maximal response (EC50) of 0.155 nM.

The target is the same in the next test. Briefly: flow cytometry on CT-550 cells expressing human ILT7, anti-human IgG DyLight 649 detection; table 'Mean Ec50 (nM)', n = 2. As for the experimental part: as §1
In order to determine the binding EC50 of ILT70019, ILT70028, ILT70052, ILT70076, ILT70080, ILT70083, ILT70089, ILT70100, ILT70137, ILT70142 and ILT70144 on cells expressing human ILT7, the candidates were screened for binding on CT-550 cells by flow cytometry. ILT70080 (EC₅₀=0.28 nM), ILT70083 (EC₅₀=0.37 nM), ILT70137 (EC₅₀=0.41 nM), ILT70144, ILT70142, ILT70052, and ILT70100 bound to human ILT7-expressing cells. […] The anti-ILT7 antibodies 7C7 (7C7 is described above in Example 1) and SBI33 (SBI33 refers to the anti-ILT7 antibody ILT7#33 provided in U.S. Published Application No. 2009/0280128) were used as positive controls.
Regarding B17, the midpoint of the response, the EC50, lay at 180 nM.

Consider B18, for which it took 23.1 nM to reach a half-maximal effect (EC50).

B19 returned a half-maximal effective concentration (EC50) of 2.03 nM.

The molecule B20 had a half-maximal effective concentration (EC50) of 1.7 nM.

The next test deals with T2, cynomolgus ILT7. Briefly: flow cytometry (MFI) on cynomolgus ILT7-expressing cells, right panel 'Cynomolgus ILT7', table 'Ec50 (pM) Mean ± SD n=3'.
Molecule B2 came in with a concentration for a half-maximal effect (EC50) of 0.37 nM.
